From the supplement of paper PMC5998384

How the values were obtained:
HeLa Kyoto [1] = assay: thermal stability score vs G1/S (z-score of summed log2 fold changes over temperatures); higher = more thermally stable than in G1/S
HeLa Kyoto [2] = assay: solubility change mitosis vs G1/S (difference of NP-40 vs SDS log2 ratios) (log2 ratio difference); higher = more soluble in mitosis
HeLa Kyoto [3] = assay: solubility in G1/S (NP-40 vs SDS abundance) (log2 ratio); higher = more soluble; settings: cell cycle stage: G1/S
HeLa Kyoto [4] = assay: melting temperature (median over replicates), in situ; higher = more thermally stable
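For melting temperature (median over replicates), in situ in this document: HeLa Kyoto cells synchronized by double thymidine or nocodazole block, proteins quantified by TMT10plex mass spectrometry, three independent biological replicates.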
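For solubility change mitosis vs G1/S (difference of NP-40 vs SDS log2 ratios) in this document: synchronized HeLa Kyoto cells (double thymidine block for G1/S, nocodazole release for mitosis), protein amounts in NP-40 versus SDS lysates quantified by mass spectrometry, three biological replicates.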
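For solubility in G1/S (NP-40 vs SDS abundance) in this document: HeLa Kyoto cells arrested at G1/S by double thymidine block, proteins quantified by TMT10plex mass spectrometry in mild NP-40 versus SDS extracts, three biological replicates.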
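For thermal stability score vs G1/S (z-score of summed log2 fold changes over temperatures) in this document: synchronized HeLa Kyoto cells, proteins quantified by TMT10plex mass spectrometry, three biological replicates, mitosis taken 0.5 h after nocodazole release, G1/S directly after double thymidine block.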

| Sequence | thermal stability score (HeLa Kyoto [1]; cell cycle stage: early G1 (4.5 h after nocodazole release)) | thermal stability score (HeLa Kyoto [1]; cell cycle stage: mitosis) | solubility change mitosis (log2) (HeLa Kyoto [2]) | solubility in G1/S (log2) (HeLa Kyoto [3]) | melting temperature (HeLa Kyoto [4]; cell cycle stage: G1/S) | melting temperature (HeLa Kyoto [4]; cell cycle stage: mitosis) |
| --- | --- | --- | --- | --- | --- | --- |
| MWDQRLVRLALLQHLRAFYGIKVKGVRGQCDRRRHETAATEIGGKIFGVPFNALPHSAVPEYGHIPSFLVDACTSLEDHIHTEGLFRKSGSVIRLKALKNKVDHGEGCLSSAPPCDIAGLLKQFFRELPEPILPADLHEALLKAQQLGTEEKNKATLLLSCLLADHTVHVLRYFFNFLRNVSLRSSENKMDSSNLAVIFAPNLLQTSEGHEKMSSNTEKKLRLQAAVVQTLIDYASDIGRVPDFILEKIPAMLGIDGLCATPSLEGFEEGEYETPGEYKRKRRQSVGDFVSGALNKFKPNRTPSITPQEERIAQLSESPVILTPNAKRTLPVDSSHGFSSKKRKSIKHNFNFELLPSNLFNSSSTPVSVHIDTSSEGSSQSSLSPVLIGGNHLITAGVPRRSKRIAGKKVCRVESGKAGCFSPKISHKEKVRRSLRLKFNLGKNGREVNGCSGVNRYESVGWRLANQQSLKNRIESVKTGLLFSPDVDEKLPKKGSEKISKSEETLLTPERLVGTNYRMSWTGPNNSSFQEVDANEASSMVENLEVENSLEPDIMVEKSPATSCELTPSNLNNKHNSNITSSPLSGDENNMTKETLVKVQKAFSESGSNLHALMNQRQSSVTNVGKVKLTEPSYLEDSPEENLFETNDLTIVESKEKYEHHTGKGEKCFSERDFSPLQTQTFNRETTIKCYSTQMKMEHEKDIHSNMPKDYLSKQEFSSDEEIKKQQSPKDKLNNKLKENENMMEGNLPKCAAHSKDEARSSFSQQSTCVVTNLSKPRPMRIAKQQSLETCEKTVSESSQMTEHRKVSDHIQWFNKLSLNEPNRIKVKSPLKFQRTPVRQSVRRINSLLEYSRQPTGHKLASLGDTASPLVKSVSCDGALSSCIESASKDSSVSCIKSGPKEQKSMSCEESNIGAISKSSMELPSKSFLKMRKHPDSVNASLRSTTVYKQKILSDGQVKVPLDDLTNHDIVKPVVNNNMGISSGINNRVLRRPSERGRAWYKGSPKHPIGKTQLLPTSKPVDL [ARHGAP11A] | -0.137 | -0.131 | -0.288 | -0.915 |  |  |
| MTSTGQDSTTTRQRRSRQNPQSPPQDSSVTSKRNIKKGAVPRSIPNLAEVKKKGKMKKLGQAMEEDLIVGLQGMDLNLEAEALAGTGLVLDEQLNEFHCLWDDSFPEGPERLHAIKEQLIQEGLLDRCVSFQARFAEKEELMLVHSLEYIDLMETTQYMNEGELRVLADTYDSVYLHPNSYSCACLASGSVLRLVDAVLGAEIRNGMAIIRPPGHHAQHSLMDGYCMFNHVAVAARYAQQKHRIRRVLIVDWDVHHGQGTQFTFDQDPSVLYFSIHRYEQGRFWPHLKASNWSTTGFGQGQGYTINVPWNQVGMRDADYIAAFLHVLLPVALEFQPQLVLVAAGFDALQGDPKGEMAATPAGFAQLTHLLMGLAGGKLILSLEGGYNLRALAEGVSASLHTLLGDPCPMLESPGAPCRSAQASVSCALEALEPFWEVLVRSTETVERDNMEEDNVEESEEEGPWEPPVLPILTWPVLQSRTGLVYDQNMMNHCNLWDSHHPEVPQRILRIMCRLEELGLAGRCLTLTPRPATEAELLTCHSAEYVGHLRATEKMKTRELHRESSNFDSIYICPSTFACAQLATGAACRLVEAVLSGEVLNGAAVVRPPGHHAEQDAACGFCFFNSVAVAARHAQTISGHALRILIVDWDVHHGNGTQHMFEDDPSVLYVSLHRYDHGTFFPMGDEGASSQIGRAAGTGFTVNVAWNGPRMGDADYLAAWHRLVLPIAYEFNPELVLVSAGFDAARGDPLGGCQVSPEGYAHLTHLLMGLASGRIILILEGGYNLTSISESMAACTRSLLGDPPPLLTLPRPPLSGALASITETIQVHRRYWRSLRVMKVEDREGPSSSKLVTKKAPQPAKPRLAERMTTREKKVLEAGMGKVTSASFGEESTPGQTNSETAVVALTQDQPSEAATGGATLAQTISEAAIGGAMLGQTTSEEAVGGATPDQTTSEETVGGAILDQTTSEDAVGGATLGQTTSEEAVGGATLAQTTSEAAMEGATLDQTTSEEAPGGTELIQTPLASSTDHQTPPTSPVQGTTPQISPSTLIGSLRTLELGSESQGASESQAPGEENLLGEAAGGQDMADSMLMQGSRGLTDQAIFYAVTPLPWCPHLVAVCPIPAAGLDVTQPCGDCGTIQENWVCLSCYQVYCGRYINGHMLQHHGNSGHPLVLSYIDLSAWCYYCQAYVHHQALLDVKNIAHQNKFGEDMPHPH [HDAC6] |  |  | -0.0591 | -0.0107 | 50.5 °C | 52 °C |
| MAAGKFASLPRNMPVNHQFPLASSMDLLSSRSPLAEHRPDAYQDVSIHGTLPRKKKGPPPIRSCDDFSHMGTLPHSKSPRQNSPVTQDGIQESPWQDRHGETFTFRDPHLLDPTVEYVKFSKERHIMDRTPEKLKKELEEELLLSSEDLRSHAWYHGRIPRQVSENLVQRDGDFLVRDSLSSPGNFVLTCQWKNLAQHFKINRTVLRLSEAYSRVQYQFEMESFDSIPGLVRCYVGNRRPISQQSGAIIFQPINRTVPLRCLEEHYGTSPGQAREGSLTKGRPDVAKRLSLTMGGVQAREQNLPRGNLLRNKEKSGSQPACLDHMQDRRALSLKAHQSESYLPIGCKLPPQSSGVDTSPCPNSPVFRTGSEPALSPAVVRRVSSDARAGEALRGSDSQLCPKPPPKPCKVPFLKVPSSPSAWLNSEANYCELNPAFATGCGRGAKLPSCAQGSHTELLTAKQNEAPGPRNSGVNYLILDDDDRERPWEPAAAQMEKGQWDKGEFVTPLLETVSSFRPNEFESKFLPPENKPLETAMLKRAKELFTNNDPKVIAQHVLSMDCRVARILGVSEEMRRNMGVSSGLELITLPHGHQLRLDIIERHNTMAIGIAVDILGCTGTLEDRAATLSKIIQVAVELKDSMGDLYSFSALMKALEMPQITRLEKTWTALRHQYTQTAILYEKQLKPFSKLLHEGRESTCVPPNNVSVPLLMPLVTLMERQAVTFEGTDMWEKNDQSCEIMLNHLATARFMAEAADSYRMNAERILAGFQPDEEMNEICKTEFQMRLLWGSKGAQVNQTERYEKFNQILTALSRKLEPPPVKQAEL [BCAR3] |  |  | 0.0356 | 0.00142 | 46.3 °C | 50.1 °C |
| MMSIKAFTLVSAVERELLMGDKERVNIECVECCGRDLYVGTNDCFVYHFLLEERPVPAGPATFTATKQLQRHLGFKKPVNELRAASALNRLLVLCDNSISLVNMLNLEPVPSGARIKGAATFALNENPVSGDPFCVEVCIISVKRRTIQMFLVYEDRVQIVKEVSTAEQPLAVAVDGHFLCLALTTQYIIHNYSTGVSQDLFPYCSEERPPIVKRIGRQEFLLAGPGGLGMFATVAGISQRAPVHWSENVIGAAVSFPYVIALDDEFITVHSMLDQQQKQTLPFKEGHILQDFEGRVIVATSKGVYILVPLPLEKQIQDLLASRRVEEALVLAKGARRNIPKEKFQVMYRRILQQAGFIQFAQLQFLEAKELFRSGQLDVRELISLYPFLLPTSSSFTRSHPPLHEYADLNQLTQGDQEKMAKCKRFLMSYLNEVRSTEVANGYKEDIDTALLKLYAEADHDSLLDLLVTENFCLLTDSAAWLEKHKKYFALGLLYHYNNQDAAAVQLWVNIVNGDVQDSTRSDLYEYIVDFLTYCLDEELVWAYADWVLQKSEEVGVQVFTKRPLDEQQKNSFNPDDIINCLKKYPKALVKYLEHLVIDKRLQKEEYHTHLAVLYLEEVLLQRASASGKGAEATETQAKLRRLLQKSDLYRVHFLLERLQGAGLPMESAILHGKLGEHEKALHILVHELQDFAAAEDYCLWCSEGRDPPHRQQLFHTLLAIYLHAGPTAHELAVAAVDLLNRHATEFDAAQVLQMLPDTWSVQLLCPFLMGAMRDSIHARRTMQVALGLARSENLIYTYDKMKLKGSSIQLSDKKLCQICQNPFCEPVFVRYPNGGLVHTHCAASRHTNPSSSSPGTRT [TGFBRAP1] |  |  | -0.0966 | -0.0452 |  | 51.1 °C |
| MACLSPSQLQKFQQDGFLVLEGFLSAEECVAMQQRIGEIVAEMDVPLHCRTEFSTQEEEQLRAQGSTDYFLSSGDKIRFFFEKGVFDEKGNFLVPPEKSINKIGHALHAHDPVFKSITHSFKVQTLARSLGLQMPVVVQSMYIFKQPHFGGEVSPHQDASFLYTEPLGRVLGVWIAVEDATLENGCLWFIPGSHTSGVSRRMVRAPVGSAPGTSFLGSEPARDNSLFVPTPVQRGALVLIHGEVVHKSKQNLSDRSRQAYTFHLMEASGTTWSPENWLQPTAELPFPQLYT [PHYHD1] |  |  | -0.137 | 0.198 | 50.2 °C | 51.2 °C |
